Test results: the RNAGym collection of RNA variant scans (doi:10.1073/pnas.2313332121)
Fewer inactive variants are shown than the library holds.

B1: TPR 5TU (parent)
chain: GGAUCUUCUCGAUCUAACAAAAAAGACAAAUCUGCCACAAAGCUUGAGAGCAUCUUCGGAUGCAGAGGCGGCAGCCUUCGGUGGCGCGAUAGCGCCAACGUUCUCAACUAUGACACGCAAAACGCGUGCUCCGUUGAAUGGAGUUUAUCAUG

Variants of: B1
Assay: polymerase ribozyme fitness, log enrichment relative to wild type (log ratio); higher = more active; in vitro selection for triplet polymerase activity
In short: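 Streptavidin-bead capture of gel-excised extended constructs, followed by RT-PCR, closed a single triplicate in vitro selection round. That round began by annealing PCR-built, transcribed mutant libraries of each subunit of a heterodimeric triplet polymerase ribozyme with a biotinylated primer, the partner subunit and triplets, then incubating them frozen at −7 °C. After Illumina sequencing of inputs and outputs, genotypes needed ≥10 input reads and ≥1 read per output. Fitness is the base-2 logarithm of genotype enrichment over wild-type enrichment, using inverse-variance-weighted replicate averages.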

Variant	polymerase ribozyme fitness (log ratio)
GGAUCUUCUCGAUCUAACAAAAAAGACAAAUCUGCCACAAAGCUUGAGAGCAUCUUCGGAUGCAGAGGCGGCAGCCUUCGGUGGCGCGAUAGCGCCAACGUUCUCAACUAAGACACGCAAAACACGUGCUCCGUCGAAUGGAGUUUAUCAUG [U111A G124A U135C]	-3.76
GGAUCUUCUCGAUCUAACUAAAAAGACAAAUCUGCCACAAAGCUUGAGAGCAUCUUCGGAUGCAGAGGCGGCAGCCUUCGGUGGCGCGAUAGCGCCAACGUUCUCAACUAUGAGACGCAAAACGCGUGCUCCGUUGAAUGGAGUUUAUCAUG [A19U C114G]	-3.52
GGAUCUUCUCGAUCUAACAAAAAAGACAAAUCUGCCACAAAGCUUGAGAGCAUCUUCGGAUGCAGAGGCGACAGCCUUCGGUGGCGCAAUAGCGCCAACGUUCUCAACUAUGACACGCAAAACGCGUGCUCCGUUGAAUGGAGUUUAUCAUG [G71A G88A]	≤ -4.2
GGAUCUUCUCGAUCUAACAAAAAAGACAAAUCUGCCACAACGCUUGAGCGCAUCUUCGGAUGCAGAGGCGGCAGACUUCGGUGGCGCGAUAGCGACAACGUUCUCAACUAUGACACGCAAAACGCGUGCUCCGUUGAAUGGAGUUUAUCAUG [A41C A49C C75A C95A]	≤ -4.2
GGAUCUUCUCGAUCUAACAAAAAAGACAAAUCUGCCACAAAGCUUGAGAGCAUCUUCGGAUGCAGAGGCGGCAGUCUUCGGUGGCGCGAUGGCGCCAAUGUUCUCAACUAUGACACGCAAAACGCGUGCUCCGUUGAAUGGAGUUUAUCAUG [C75U A91G C99U]	-3.56
GGAUCUUCUCGAUCUAACAAAAAAGACAAAUCUGUCACAACGCUUGAGAGCAUCUACGGAUGCAGAGGCGGCAGCUUUCGGUGGCGCUAUAGCGCCAACGUUCUUAACUAUGACACGCAAAACGCGUGCUCCGUUGAAUGGAGUUUAUCAUG [C35U A41C U56A C76U G88U C105U]	≤ -4.2
GGAUCUUCUCGAUCUAACAAACAAGACAAAUCUGCCACAAAGCUUGAGAGCGUCUUCGGAUGCAGAGGCGACAGCCUUGGGUGGCGGGAUAGCGCCAAGGUUCUCAACUAUGAGACGCAAAACGCGGGAUCCGUUGAAUGGCGUUUAUCAUG [A22C A52G G71A C79G C87G C99G C114G U127G C129A A142C]	≤ -4.2
GGAUCUUCUCGAUCUAACAAAAAAGACAAAUCUGCCACAAAGCUUGAGAGCAUCUUCGGAUGCAGAGGCGGCAGCCUUCGGUGGCGCGAUAGUGUCAACGUUCUCAACUAUGACACGCAAAACGCGUGCUCCGUUGAAUGGAGUUUAUCAUG [C93U C95U]	-2.43
GGAUCUUCUCGAUCUCACAAAAAAGACAAAUCUGCCACAAAGCUUGAGAGCAUCUUCGGAUGCAGAGGCGGCAGCCUUCGGAGGCGCGAUAGCGGCAACGUUCUCAACUAUGACACGCAAAACGCGUGCUCCGUUGAAUGAAGUUUAUCAUG [A16C U82A C95G G141A]	-3.41
GGAUCUUCUCGAUCUAACAAAAAAGACAAAUCUGCCACAAAGCUUGAGAGCAUAUACGGAUGCAGAGGCGGCAGCCUUCGGUGGGGCGAUAGCGCCAACGCUCUCAACUAUGACACGCAAAACGCGUGCUCCGAUGAAUGGAGUUUACCAUG [C54A U56A C85G U101C U134A U148C]	≤ -4.2
GGAUCUUCUCGAUCUAACAAAAAAGACAAAUCUGCCACAAUGCUUGAGAGGAUCUUCUGAAGCAGAGACGGCAGCCUUCGGUGGCGCGAUAGCGCACACGUCCUCAACUAUGACACGCAAAACGCGUGCUCCGUUGAAUGGAGUUUAUCAUG [A41U C51G G58U U61A G68A C96A A97C U102C]	≤ -4.2
GGAUCUUCUCGAUCUAACAAAAAAGACAAAUCUGCCACAAAGCUUGAGAGCAUCUUCAGAUGCAGAGGCGUCAGCCUUCGGUGGCGCGAUAGCGCCAACGUUCUCAACUAUGACACGCAAAACGCGUGCUCCGUUGAAUGGAGUUUAUCAUG [G58A G71U]	-0.673
GGAUCUUCUCGAUCUAACAAAAAAGACAAAUCUGCCACAAAGCUUGAGAGCAUCUUCGGAUGCAGAGGCGGCAGCCUUCGUUGGCGAGAUAGCGCCAACGUUCUCAGCUAUGACACGCAAAACGCGUGCUCCGUUGAAUGGAGGUUAUCAUG [G81U C87A A107G U144G]	≤ -4.2
GGAUCUUCUCGAUCUAACAAAAAAGACAAAUCUGCCACAAAGCUUGGGAGCAUCUUCGGAGGCAGAGGCGGCAGCCUUCGGUGGCGCGAUAGCGCCAACGUUCUCAACUAUGACACGCAAAACGCGUGCUCCGUUGAAUGGGGUUUAUCAUG [A47G U61G A142G]	-2.82
GGAUCUUCUCGAUCUAACAAAAAAGACAAAUCUGCCACAAAGCUUGAGAGCAUCUUCGGAUGCAGAGGCGGCAGCCUUCGGUGGCGCGAUAGCGCCAACGUUCUCAACUAUGACACGCAAAACGCGGGCUCCGCUGAAUGGAGUUUAUCAUG [U127G U134C]	-3.03
GGAUCUUCUCGAUCUAACAAAAAAGACAAAUCUGCCACAAAGCUUGAGAGCAUCUUCGGAUGCAGAGGCGGCAGCCUUCGGUCGCGCGAUAGCGCCAACGUUCUGAACUAUGACACGCAAAACGCGUGCUCCGUUGAAUGGAGUUUAUCAUG [G83C C105G]	-2.69
GGAUCUUCUCCAUCUAACAAAAAAGACAAAUCUGCCAUAAAGCUUGAGAGCAUCUUCGGAUGCAGAGGCGGCAGCUUGCGGUGGCGCGAUAGCGCCGACGUUCUCAACUAUGACACGCAAAACUCGUGCUCCGUUGAAUGGAGUUUAUCAUG [G11C C38U C76U U78G A97G G124U]	≤ -4.2
GGAUCUUCUCGAUCUAACAAAAAAGACAAAUCUGCCACAAAGCUUGAGAGCCUCUUCGGAUGCAGAGGCGGCAGCCUUCGGUGGUGCGAUAGCGCCAACGUUCUCAACUAUGACACGCAAAACGCGUGCUCCGUUGAAUGGAGUUUAUCAUG [A52C C85U]	-1.81
GGAUCUUCUCGAUUUUACAAAAAAGAAAAGUCUGCCACAAAUCUUGAGAGUAUCUUCGGAUGCAGAGGCGGCAGCCUUCGGUGGCGCGAUAGAGCCAACGUUCUCAACUAUGACACGCAAAACGCGUGCUCCGUUGAAUGGAGUUUAUCAUG [C14U A16U C27A A30G G42U C51U C93A]	≤ -4.2

Variant	polymerase ribozyme fitness (log ratio)
GGAUCUUCUCGAUCUAACAAAAAAGACAAAUCUGCCACAAAGCUUGAGAGCAUCUUCGGAUGCAGAGGCGGCAGCCUUCGGUGGCGCGAUAGCACCAACGUUCUCAACUAUGACACGCAAAACGCGUGCUCCGUUGAAUGGAGUUUAUUAUG [G94A C149U]	-1.24
GGAUCUUCUCGAUCUUACACAAAAGACAAAUCUGCCACAAAGCUUGAGAGCAUCUUCGGAUGCAGAGGCGGCAGCCUUCGGUCGCGCGAUAGCGCAAACGUUCUCAGCUAUGACACGCAAAACGCGUGCUCCGUUGAAUGGAGUUUAUCAUG [A16U A20C G83C C96A A107G]	≤ -4.2
GGAUCUUCUCGAUCUAACAAAAAAGACAAAUCUGCCACAAAACUUGAGAGCAACUUCGGAUGCAGAGGCGGCAGCCGUCGGUGGCGCGAUUGCGCCAACGUUCUCAACUAUGACGCGCAAAACGCGUGCUCCGUGGAAUGGAGUUUAUCAUG [G42A U53A U77G A91U A115G U135G]	≤ -4.2
GGAUCUUCUCGAUCUAACAAAAAAGACAAAUCUGCCACAAAGCUUGAGAGCAUCUUCGGAUGCAGAGGCGGCAGCCUUCGGUGGCGCGAUAGCGCUAACGUUCUCAACUAUGACACGCAAAACACGUGCUCCGUUGAAUGGAGUUUAUCAUG [C96U G124A]	-0.382
GGAUCUUCUCGAUCUAACAAAAAAGACAAAUCUGCCACAAAGCUUGAGAGCAUCUUCGGAUGCAGAGGCGGCAGCCUUCGGUGGCGCGAUAGCGCCAACGUUCUCAACUAUGACACGCAAAACGUGUGCUCCGAUGAAUGGAGUUUAUCAUG [C125U U134A]	-1.89
GGAUCUUCUCGAUCUAACAAAAAAGUCAAAUCUGCCACAACGCAUGAGAGCAUCUUCGAAUGCAGAGGCGGCAGCCUUCGGUGGCGCGAUAGCGCCAACGUUCUCAACUAUGACACGCAAAACGCUUACUCCGUUGGAUGGAGUUUAUCAUG [A26U A41C U44A G59A G126U G128A A137G]	≤ -4.2
GGAUCUUCUCGAUCUAACAAAAAAGACAAAUCUGCCACAAAGCUUGAGAGCAUCUUCGGAUGCAGAGGCGGCAGCCUUCGGUGGCGCGAUAGAGCCAACGUUCUCAACUAUGACACGCAAAACGCGUGCUCGGUUGACUUCAGUUUAUCAUG [C93A C132G A138C G140U G141C]	≤ -4.2
GGAUCUUCUCGAUCUAACAAAAAAGACAAAUCUGCCACAAAGCUUGAGAGCAUCUUCGGAUGCAGAGGCGGCAGCCUUCGGUGGCGCGAUACCGCCAAAGUUCUCAACUAUGACACGCAAAACGCGUGCUCCGUUGACUGGAGUUUAUCAUG [G92C C99A A138C]	≤ -4.2
GGAUCUUCUCGAUCUAACAAAAAAGACAAAUCUGCCACAAAGCUUGAGAGCAUCUUCGGAUGCAGAGGCGGCAGCUUUCGGUCGCGCGAUAGCGCCAACGUUCUCAACUAUGACACGUAAAACGCGUGCUCCGUUGAAUGGAGUUUAUCAUG [C76U G83C C118U]	-0.363
GGAUCUUCUCGAUCUAACAAAAAAGACAAAUCUGCCACAAAGCUUGAGAGCAUCUUCGGAUGCAGAGGCGGCAGCCUUCGGUGGCGCGAUAGCGCGAACGUUCUCAACUAUGACACGCAAAACGCGUGCUCCGUUGAAGUGAGUUUAUAAUG [C96G U139G G140U C149A]	≤ -4.2
GGAUCUUCUCGAUCUAACAAAAAAGACAAAUCUGCCACAAAGCUUGAGAACAUCUUCGGAUGCAGAGGCGGCAGCCUUCGGUGGCGCGAUAGCGCCAACGUUCUCAACUAUGACACGCAAAACGCGUGCUCCCUUGAAUGGAGUUUAUCAUG [G50A G133C]	-3.28
GGAUCUUCUCGAUCUAACAAAAAAGACAAAUCUGCCACAUAGCUUGAGAGCAUCUUUGGAAGCAGAGGCGGCAGCCUUCGGGGGCGCGAUAGCGCCACCGUUCUCUACUAUGACAUGCAAUACGCGUGCUCUGUUGACUGGAGUUUAUCAUG [A40U C57U U61A U82G A98C A106U C116U A121U C132U A138C]	≤ -4.2
GGUUCUUCUCGAUCUACCAAAAAAGACAAAUCUGCCACAAAGCUUGUGAGCAUCUUCGGAUGCAGAGGCGGCAGCCUUCGGUGGCGCGAUAGUGCCAACGUUCACAACUAUGACACGCAAAACGCGUGCUCCGUUGAAUGGAGUUUAUCAUG [A3U A17C A47U C93U U104A]	-1.38
GGAUCUUCUCGAUCUAACAAAAAAGACAAAUCUGCCACAAAGCUCAAGAGCAUCUUCGGAGCCAGAGGCGGCAGCAUUCGGUGGCGCGAUAGCGCCAACGUUCUCAACUAUGACACGCAAAACGCGUGCUCCGUUGAAUGGAGUUUAUCAUG [U45C G46A U61G G62C C76A]	≤ -4.2
GGAUCUUCUCGACCUAACAAAAAAGACAAAUCUGCCACAAAGCUUGAGAGCAUGUUCGGAUGCAGAGGCGGCAGCCUUCGGUGGCGCGAUAGCGGCAACGUUCUCAACUAUGACACGCAAAACGCGUGCUCCGUUGAAUGGAGUUUAUCAUG [U13C C54G C95G]	-3.76
GGAUCUUCUCGAUCUAACAAAAAAGACACAUCUGCCACAAAGCUUGAGAGCAUCAUUGGAUGCAGAGGCGGCAGCCUUCGGUGGCGCGAGCGCGCCAACGUUCUCAACUAUGACACGCAAAACGCGUGCUCCGUUGAAUGGAGUUUAGCAUG [A29C U55A C57U U90G A91C U148G]	≤ -4.2
GGAUCUUCUCGAUCUAACGAAAAAGACAAAUCUGCCACAAAGCUUGAGAGCAUGUUCGGAUGCAGAGGCAGCGGCCUUCGGUGGCGCGAUAACGCCAACGUUCUCGACUAUGACAGGCAAAACGCGUGCUCCGUUGGAUGGAGUUUAUCAUG [A19G C54G G70A A73G G92A A106G C116G A137G]	≤ -4.2
GGAUCUUCUCGAUCUAACAAAAAAUACAAAUCUGCCACAAAGCUUGAGAGCCUCUUCGGAUGUAGAGGCGGCAGCCUUCGGUGGCGCCAUAGCGCCAACGUUCUCAACUAUGACACGCAAAACGCGCGCUCCGUUGAAUGGAGUUUAUCAUG [G25U A52C C63U G88C U127C]	≤ -4.2
GGAUCUUAUCGAUCUAACAUAAAAGACAAAUCUGCCACAAACGAUGAGAGCAUCUUCGGAUGCAGAGGCGGCAGCCUUCGGUGGCGCGAUAGCGCCAACGUUCUCAACUAUGUCACGCAAAACGCGUGCUCCGUUGAAUGGCGUUUAUCAUG [C8A A20U G42C C43G U44A A113U A142C]	≤ -4.2
